Data on 17 molecules can be found in WO2009055074A2 (dated 2009).

Residue numbers refer to the chain shown, from its start.

To fix the notation:
B1: S1R3C1_CS_1D3 (scFv, V domains shown)
VH: QVQLQESGPGLVKPSQTLSLTCGISGDSVSSNSAAWNWIRQSPTRGLEWLGRTYYRSSWYHNYAPSMNSRLTIIADTSKNQFSLQLNSVTPEDTAVYYCASGWAFDVWGRGTLVTVSS
VL: QSVLTQPPSASGSPGQSVTISCTGTSSDVGAYDFVSWYQQHPGKAPKLMIYEVNKRPSGVPDRFSGSKSGNTASLTVSGLQAEDEADYYCSSYAGSKNLLFGGGTKLTVLG
notes: also called Her2_S1R3C1_CS_1D3
B2: S1R3B2_DP47_1E8 (scFv, V domains shown)
VH: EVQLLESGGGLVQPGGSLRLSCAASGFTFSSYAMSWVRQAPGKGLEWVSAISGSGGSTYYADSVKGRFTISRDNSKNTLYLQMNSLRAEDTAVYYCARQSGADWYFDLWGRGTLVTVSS
VL: QAVLTQPSAVSGAPGQRVTISCTGTSSNIGTNYLVHWYQQRPGTAPQLLVSGNNTRPSGVTDRFSVSKSATSASLAITGLQAEDEADYYCQTYDINLRVWVFGGGTKVTVLG
notes: also called Her2_S1R3B2_DP47_1E8
B3: S1R3C1_CS_1A6 (scFv, V domains shown)
VH: EVQLVQSGAEVKKPGESLKISCKGFGYNFRSAWIGWVRQMPGKGLEWMGVIYPGDSDVRYSPSFQGQVTISADKSISTAYLQWSSLKASDTAMYYCTRPVGQWVDSDYWGKGTLVTVSS
VL: QSVLTQPPSASGTPGQRVTISCSGSSSNIGTNTVNWYQQLPGTAPKLLIYTSNQRPSGVPARFSASNSGTSASLAISGLRSEDEADYYCAAWDDKLSGAVFGGGTKLTVLG
notes: also called Her2_S1R3C1_CS_1A6
B4: S1R3B2_BMV_1H5 (scFv, V domains shown)
VH: EVQLVQSGGGLVRPGGSLRLSCAASGFSFSDYYMTWIRQIPGKGLEWVAVIWNDGSDRYYADSVKGRFTISRDNSKNTLFLQMSSLRDEDTALYYCVRGGPTASSGFDYWGRGTLVTVSS
VL: SSELTQPASVSGSPGQSITISCTGTSSDVGGYNYVSWYLQHPGKAPKLMIYEGSKRPSGVSNRFSGSKSGNTASLTISGLQAEDEADYYCSSYTTRSTRVFGGGTKLTVLG
notes: also called Her2_S1R3B2_BMV_1H5
B5: S1R2A_CS_1D3 (scFv, V domains shown)
VH: EVQLVQSGAEVKKPGASVKVSCKASGYSFTAFYIHWVRQAPGQGLEYLGWIDPNTGATKYAQRFQGRVIMTWDTSITTATMELSRLTSDDSAVYYCVRDLREWGYELSVEYWGRGTLVTVSS
VL: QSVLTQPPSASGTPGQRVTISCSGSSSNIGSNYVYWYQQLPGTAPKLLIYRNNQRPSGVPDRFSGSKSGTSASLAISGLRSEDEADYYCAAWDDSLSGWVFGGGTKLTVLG
B6: S1R2C_CS_1H12 (scFv, V domains shown)
VH: EVQLVETGGGLVQPGGSLRLSCAASGFTFSSYGMNWVRQAPGKGLEWVSYISSSGNTIFYADSVKGRFTISRDSAKNSVSLQMNSLRDEDTAVYYCASYYSYYYGMDAWGQGTMVTV
VL: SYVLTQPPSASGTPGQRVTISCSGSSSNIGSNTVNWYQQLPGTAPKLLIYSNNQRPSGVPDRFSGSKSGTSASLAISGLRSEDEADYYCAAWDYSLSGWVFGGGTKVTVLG
B7: S1R3B2_BMV_1G2 (scFv, V domains shown)
VH: QVQLVQSGAEVKKPGSSVKVSCKASGYTFTSYGISWVRQAPGQGLEWMGWISAYNGNTNYAQKLQGRVTMTTDTSTSTAYMELRSLRSDDTAVYYCARVPGVSGSYPDYYYMDVWGKGTLVTVSS
VL: DIQMTQSPSTLSASIGDRVTITCRASEGIYHWLAWYQQKPGKAPKLLIYKASSLASGAPSRFSGSGSGTDFTLTISSLQPDDFATYYCQQYSNYPLTFGGGTKLEIKR
notes: also called Her2_S1R3B2_BMV_1G2
B8: S1R3B2_DP47_1E10 (scFv, V domains shown)
VH: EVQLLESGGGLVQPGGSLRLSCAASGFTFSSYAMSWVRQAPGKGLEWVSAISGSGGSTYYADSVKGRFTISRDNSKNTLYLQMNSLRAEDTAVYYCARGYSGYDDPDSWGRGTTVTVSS
VL: HVILTQPPSTSGTPGQTVTISCSGSSSNIGSHYVYWYQQLPGTAPKLLIYRNNQRPSGVPDRFSGSKSGTSASLAISGLRSEDETDYYCAAWDDSLSGRVFGTGTKLTVLG
notes: also called Her2_S1R3B2_DP47_1E10
B9: S1R3A1_DP47_1A6 (scFv, V domains shown)
VH: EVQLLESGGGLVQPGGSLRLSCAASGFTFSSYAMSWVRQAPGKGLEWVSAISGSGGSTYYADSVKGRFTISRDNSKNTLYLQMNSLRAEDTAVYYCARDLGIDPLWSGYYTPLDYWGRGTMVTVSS
VL: HVILTQPPSASGTPGQRVTISCSGSSSNIGSNSVSWYQQLPGTAPKLLMYTNNQRPSGVPDRFSGSKSGTSASLAISGLQSEDEADYYCATWDASLNTWVFGGGTKVTVLG
notes: scFv (one chain), soluble from the bacterial periplasm in the screening; also called Her2_S1R3A1_DP47_1A6
B10: S1R3C1_DP47_1H1 (scFv, V domains shown)
VH: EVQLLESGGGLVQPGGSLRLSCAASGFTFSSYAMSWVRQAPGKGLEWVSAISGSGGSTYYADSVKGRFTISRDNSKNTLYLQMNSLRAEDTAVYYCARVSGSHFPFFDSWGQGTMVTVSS
VL: QSVLTQPPSVSVAPGQTARITCGGDKIGHKSVHWYQQKPGQAPVLLVYDDRKRPSGIPERFSGSNSGNTATLTISRVEAGDEAAYHCQVWDRSSDPYVFGTGTKVTVLG
notes: scFv (one chain), soluble from the bacterial periplasm in the screening; also called Her2_S1R3C1_DP47_1H1
B11: S1R3B1_BMV_1A1 (scFv, V domains shown)
VH: EVQLVQSGAEVKEPGASVKVSCKASGYDFSNYGFSWVRQAPGQGLEWMGWISSYNGYTNYAQRLQGRVTMTTDTSTSTAYMELRSLRSDDTAVYYCARDRGLGNWYFDLWGQGTLVTVSS
VL: B4 VL with S1Q, E3V, L39Q
notes: scFv (one chain), soluble from the bacterial periplasm in the screening; also called Her2_S1R3B1_BMV_1A1
B12: S1R3B1_BMV_1G11 (scFv, V domains shown)
VH: QVQLVQSGGGLVQPGGSLRLSCAASGFTFSTYAMSWARQAPGKGLEWVSSISGDGGRILDADSAKGRFTISRDNSKNTLYLQMNGLRVEDTALYYCARADGNYWGRGTMVTVSS
VL: B4 VL with S1Q, E3V, L39Q
notes: scFv (one chain), soluble from the bacterial periplasm in the screening; also called Her2_S1R3B1_BMV_1G11
B13: S1R3A1_BMV_1G4 (scFv, V domains shown)
VH: QVQLVESGAEVKKPGASVKVSCKASGYTFTSYDINWVRQAPGQRLEWMGWINAGNGNTKYSQKFQGRVTITRDTSASTAYMELRSLRSDDTAVYYCARGRSYGHPYYFDYWGQGTLVTVSS
VL: B4 VL with S1Q, E3V, L39Q
notes: scFv (one chain), soluble from the bacterial periplasm in the screening; also called Her2_S1R3A1_BMV_1G4
B14: S1R3A1_CS_1B12 (scFv, V domains shown)
VH: QVQLVQSGAEVKKPGASVKVSCQASGYTFSGHYMHLVRQAPGQGLEWMGWIHPTSGGTTYAQKFQGRVVMTRDTSISTAYMELSRLTSDDTAVYYCARMSQNYDAFDIWGQGTMVTVSS
VL: QAVLTQPSSVSGAPGQRVTISCTGSSSNIGAGYDVNWYQQFPGTAPKIIVYGDRPSGAPDRFSGSKSGTSASLAITGLRAEDEADYYCQSWDSRLSSYVFGTGTKVTVLG
notes: scFv (one chain), soluble from the bacterial periplasm in the screening; also called Her2_S1R3A1_CS_1B12
B15: S1R3B1_BMV_1A10 (scFv, V domains shown)
VH: QMQLVQSGGGVVQPGRSLRLSCAASGFTFSSYGMHWVRQAPGKGLEWVAVISYDGSIKYYADSVKGRFTISRDNSKNTLYLQMNSLRAEDTGVYYCSKDRYSSGWYSSDAFDIWGRGTMVTVSS
VL: SSELTQDPAVSVALGQTVRITCQGDSLRSYYASWYQQKPGQAPVLVIYGKNNRPSGIPDRFSGSSSGNTASLTITGAQAEDEADYYCHSRDSSGNHVLFGGGTKLTVLG
notes: scFv (one chain), soluble from the bacterial periplasm in the screening; also called Her2_S1R3B1_BMV_1A10
B16: S1R3B1_BMV_1H11 (scFv, V domains shown)
VH: EVQLVQSGGGLVKPGGSLRLSCAASGFTFSSYGMHWVRQAPGKGLEWVAGIFYDGGNKYYADSVKGRFTISRDNSKNTLYLQMNSLRAEDTAVYYCARDRGYYYMDVWGKGTTVTVSS
VL: QSVLTQPPSVSGAPGQRVTISCTGRSSNIGAGHDVHWYQQLPGTAPKLLIYGDSNRPSGVPDRFSGSRSGTSASLAITGLQAEDEADYYCQSYDSSLRGSVFGGGTKVTVLG
notes: scFv (one chain), soluble from the bacterial periplasm in the screening; also called Her2_S1R3B1_BMV_1H11
B17: S1R3C1_BMV_1H11 (scFv, V domains shown)
VH: GVQLVESGGGLVKPGGSLRLSCAASGFTFSSYNMNWVRQAPGKGLEWVSAISGSGGSTYYADSVTGRFTISRDNSKNTLYLQMNSLRAEDTAVYYCAKDTSGWYGDGMDVWGRGTLVTVSS
VL: B7 VL
notes: scFv (one chain), soluble from the bacterial periplasm in the screening; also called Her2_S1R3C1_BMV_1H11

The target of the first test is T1, extracellular domain (ECD) of Her2 (ErbB2) (human, UniProt P04626 23-652).
T1 construct: Target as named in the sentence on the thirty-one scFvs; also called ECD region of Her2
The test can be described thus: three rounds of selection and screening ELISA, scFv on phage. For orientation: ELISA stands for enzyme-linked immunosorbent assay.
With B1, the binding result is listed as “binds”.

As for B2, the binding result is reported as “binds”.

Take B3: the binding result is reported as “binds”.

For the molecule B4, the binding result was “binds”.

For B5, the binding result is given as “binds”.

B6: the binding result was “binds”.

In the case of B7, the binding result is listed as “binds”.

As to B8, the binding result is “binds”.

Another test has as its target T1, extracellular domain (ECD) of Her2 …. The test can be described thus: three rounds of selection and screening ELISA, soluble periplasmic scFv.
With B9, the binding result is “binds”.

As for B10, the binding result is reported as “binds”.

Turning to B11, the binding result is listed as “binds”.

Regarding B12, the binding result is given as “binds”.

Turning to B13, the binding result was “binds”.

Consider B14, for which the binding result is reported as “binds”.

B15: the binding result was “binds”.

As for B16, the binding result is given as “binds”.

In the case of B17, the binding result is “binds”.
